The text below walks through data of PMC6510891, “Functional duplication of Rap1 in methylotrophic yeasts”.

T1: HpRap1A (Hansenula polymorpha DL-1, UniProt W1Q7Z6 1-613)
T1 sequence: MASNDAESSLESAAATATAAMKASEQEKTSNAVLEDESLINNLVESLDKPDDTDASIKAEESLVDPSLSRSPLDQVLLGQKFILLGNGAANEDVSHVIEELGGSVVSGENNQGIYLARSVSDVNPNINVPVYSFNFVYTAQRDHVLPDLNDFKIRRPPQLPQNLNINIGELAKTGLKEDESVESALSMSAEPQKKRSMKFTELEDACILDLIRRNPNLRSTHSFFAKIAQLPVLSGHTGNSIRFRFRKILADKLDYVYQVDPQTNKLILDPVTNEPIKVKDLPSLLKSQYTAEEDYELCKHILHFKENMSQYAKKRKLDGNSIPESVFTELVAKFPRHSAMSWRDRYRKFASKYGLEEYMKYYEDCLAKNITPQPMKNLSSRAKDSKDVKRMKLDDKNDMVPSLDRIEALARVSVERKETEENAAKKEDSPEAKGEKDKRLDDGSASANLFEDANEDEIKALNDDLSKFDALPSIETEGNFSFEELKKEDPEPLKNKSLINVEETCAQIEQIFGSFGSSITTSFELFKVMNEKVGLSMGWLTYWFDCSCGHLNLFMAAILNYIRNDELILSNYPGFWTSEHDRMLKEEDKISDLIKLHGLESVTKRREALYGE

T2: HpRap1B (Hansenula polymorpha DL-1, UniProt W1QDN2 1-576)
T2 sequence: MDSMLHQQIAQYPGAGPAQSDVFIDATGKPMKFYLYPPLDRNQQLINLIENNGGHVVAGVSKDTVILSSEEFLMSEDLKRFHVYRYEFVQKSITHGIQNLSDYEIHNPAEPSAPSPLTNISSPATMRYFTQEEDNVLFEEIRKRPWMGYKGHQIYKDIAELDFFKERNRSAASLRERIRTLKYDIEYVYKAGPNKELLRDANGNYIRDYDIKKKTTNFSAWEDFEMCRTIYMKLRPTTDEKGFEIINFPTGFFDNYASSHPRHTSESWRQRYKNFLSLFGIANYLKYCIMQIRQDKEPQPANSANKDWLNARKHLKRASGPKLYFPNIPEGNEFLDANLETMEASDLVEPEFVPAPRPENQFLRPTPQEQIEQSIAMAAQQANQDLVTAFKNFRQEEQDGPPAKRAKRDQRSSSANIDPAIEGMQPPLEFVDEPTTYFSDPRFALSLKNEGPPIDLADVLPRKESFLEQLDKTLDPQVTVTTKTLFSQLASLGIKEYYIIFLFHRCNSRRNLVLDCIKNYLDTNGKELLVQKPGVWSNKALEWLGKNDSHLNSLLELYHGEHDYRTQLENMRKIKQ

B1: CANAR (SPR) (dsDNA)
DNA 1: GGTGTTGGGTGTTGGGTGTTGGG
DNA 2: CCCAACACCCAACACCCAACACCCCTCTACGTCCTCCTGCTCC
B2: RPL36b (dsDNA)
DNA 1: GGACAGTGGTGTAGGGGGTAGAG
DNA 2: CTCTACCCCCTACACCACTGTCCCCTCTACGTCCTCCTGCTCC
B3: RPS22b (dsDNA)
DNA 1: AATGTTCGGTTCGAGGAGTTCTT
DNA 2: AAGAACTCCTCGAACCGAACATTCCTCTACGTCCTCCTGCTCC
B4: CANAL (SPR) (dsDNA)
DNA 1: ACTTCTTGGTGTACGGATGTCTA
DNA 2: TAGACATCCGTACACCAAGAAGTCCTCTACGTCCTCCTGCTCC
B5: rnd2 (dsDNA)
DNA 1: AAATCTAGACATGAAAAAAAAAATGTTAGTAATCGAAATCTC
DNA 2: GAGATTTCGATTACTAACATTTTTTTTTTCATGTCTAGATTT
B6: VIIrAbs (competitor) (dsDNA)
DNA 1: GGCAGGCGGTGTAGGGATGCGGC
DNA 2: GCCGCATCCCTACACCGCCTGCC
B7: PICPA (dsDNA)
DNA 1: GGATGCTGGATGCTGGATGCTGGATGCT
DNA 2: AGCATCCAGCATCCAGCATCCAGCATCC
B8: DEKBR (dsDNA)
DNA 1: GGATTGGTGGATTGGTGGATTGGT
DNA 2: ACCAATCCACCAATCCACCAATCC
B9: rnd1 (competitor) (dsDNA)
DNA 1: ACGACTCACTGTAGATACGACTCACTGTAGAT
DNA 2: ATCTACAGTGAGTCGTATCTACAGTGAGTCGT
B10: HANPO4 (competitor) (dsDNA)
DNA 1: GGGTGGCGGGGTGGCGGGGTGGCGGGGTGGCG
DNA 2: CGCCACCCCGCCACCCCGCCACCCCGCCACCC
B11: PACTA (dsDNA)
DNA 1: TGTGAGTGGTGTGAGTGGTGTGAGTGG
DNA 2: CCACTCACACCACTCACACCACTCACA
B12: CANMA (dsDNA)
DNA 1: CTCGCTTGGTGTACGGATGCAGA
DNA 2: TCTGCATCCGTACACCAAGCGAG
B13: CANAL (competitor) (dsDNA)
DNA 1: ACTTCTTGGTGTACGGATGTCTA
DNA 2: TAGACATCCGTACACCAAGAAGT
B14: DEBHA (dsDNA)
DNA 1: GTGTTGAGGTGTAGGGATGTTGA
DNA 2: TCAACATCCCTACACCTCAACAC

The Kd is the free concentration of one partner at which half of the binding sites on the other are occupied at equilibrium, for simple one-to-one binding.

In one series the target is T1, HpRap1A. Briefly: SPR; SPR: 10 mM HEPES-NaOH pH 7.5, 150 mM NaCl, 0.5 mM DTT, 0.05% Tween 20, 1 mg/ml BSA, 0.02 mg/ml salmon sperm DNA; competition 2 nM protein with 20 or 200 nM competitor. EMSA: 20 mM HEPES-NaOH pH 7.5, 50 mM NaCl, 0.2 mg/ml BSA, 5% glycerol, 0.1 mg/ml salmon sperm DNA, room temperature. The settings on record: protein: recombinant; 3' overhang 20 nt on strand 2. On the technique in general: Surface plasmon resonance follows binding to a sensor surface in real time, without labels.
Regarding B1, the binding result is “no binding”. Regarding B2, the binding result is “no binding”. As to B3, the binding result is “no binding”.

The next series addresses T1, HpRap1A. In words: SPR; kinetic fit; SPR: 10 mM HEPES-NaOH pH 7.5, 150 mM NaCl, 0.5 mM DTT, 0.05% Tween 20, 1 mg/ml BSA, 0.02 mg/ml salmon sperm DNA; competition 2 nM protein with 20 or 200 nM competitor. EMSA: 20 mM HEPES-NaOH pH 7.5, 50 mM NaCl, 0.2 mg/ml BSA, 5% glycerol, 0.1 mg/ml salmon sperm DNA, room temperature. As to conditions: protein: recombinant; 3' overhang 20 nt on strand 2.
As for B4, the Kd came out at 0.05 ± 0.014 nM.

The target of a further series is T2, HpRap1B. Briefly: competition SPR; score - vs PICKU surface; SPR: 10 mM HEPES-NaOH pH 7.5, 150 mM NaCl, 0.5 mM DTT, 0.05% Tween 20, 1 mg/ml BSA, 0.02 mg/ml salmon sperm DNA; competition 2 nM protein with 20 or 200 nM competitor. EMSA: 20 mM HEPES-NaOH pH 7.5, 50 mM NaCl, 0.2 mg/ml BSA, 5% glycerol, 0.1 mg/ml salmon sperm DNA, room temperature. The settings on record: protein: recombinant; blunt. On the technique in general: A gel shift assay detects complexes by their altered migration in electrophoresis.
B5: the binding result is reported as “no binding”. As for B6, the binding result is given as “no binding”. On the same count and under the same terms, as for B7, the entry is “no binding”. With B8, the binding result is “no binding”. Take B9: the binding result is on record as “no binding”.

A further series addresses T1, HpRap1A. Briefly: competition SPR; score - vs VIIrAbs surface; SPR: 10 mM HEPES-NaOH pH 7.5, 150 mM NaCl, 0.5 mM DTT, 0.05% Tween 20, 1 mg/ml BSA, 0.02 mg/ml salmon sperm DNA; competition 2 nM protein with 20 or 200 nM competitor. EMSA: 20 mM HEPES-NaOH pH 7.5, 50 mM NaCl, 0.2 mg/ml BSA, 5% glycerol, 0.1 mg/ml salmon sperm DNA, room temperature. The settings on record: protein: recombinant; blunt.
Consider B5, for which the binding result is “no binding”. Consider B10, for which the binding result was “no binding”. Regarding B7, the binding result is listed as “no binding”. Regarding B8, the binding result is listed as “no binding”. On the same count and under the same terms, in the case of B11 it was “no binding”; in that of B9, “no binding”.

A further series addresses T1, HpRap1A. In words: competition SPR; score +++ vs VIIrAbs surface; SPR: 10 mM HEPES-NaOH pH 7.5, 150 mM NaCl, 0.5 mM DTT, 0.05% Tween 20, 1 mg/ml BSA, 0.02 mg/ml salmon sperm DNA; competition 2 nM protein with 20 or 200 nM competitor. EMSA: 20 mM HEPES-NaOH pH 7.5, 50 mM NaCl, 0.2 mg/ml BSA, 5% glycerol, 0.1 mg/ml salmon sperm DNA, room temperature. The settings on record: protein: recombinant; blunt.
B12: the binding result is “binds”. In the case of B13, the binding result is reported as “binds”. For B14, the binding result is “binds”. The same measure, in the same setting: as for B6, the entry is “binds”.
